From the nanobody polyreactivity screen of Harvey et al. (2022)

Experiment: yeast display, Sf9 membrane polyspecificity reagent, FACS + sequencing; frameworks hold sequencing errors
Outline: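 A synthetic nanobody library was expressed on Saccharomyces cerevisiae BJ5465 by galactose induction for 36–48 hours. The library was stained for 1 hour at 4 °C with 10% biotinylated, detergent-solubilized Sf9 membrane reagent and enriched with streptavidin microbeads before FACS. Low and high (top ~1%) gates were set on anti-HA fluorescence for expression and streptavidin fluorescence for reagent binding, and each polyreactivity label reflects the gate of origin.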

With “QVQLVESGGGLVQAGGSLRLSCAASGSIFDLNAMGWYRQAPGKERELVAAISSGGGTYYADSVKGRFTISRDNAKNTVYLQMNSLKPEDTAVYYCNRVTRWTYNYWGQGTQVTVSS” as the sequence, how does the “polyreactivity (PSR sort gate)” value read?
The value was “high polyreactivity”.

With “QVQLQESGGGLVQAGGSLLSCAASGTISYYREMGWYRQAPGKERELVAGIGVGTITYYADSVKGRFTISRHNAINTVYMQMNSLKPEDTAVYYCAAHIDGNDSHAYWGQGTQVTVSS” as the sequence, how does the “polyreactivity (PSR sort gate)” value read?
Its value is “low polyreactivity”.

For “QVQLVESGGGLVQAGGSLRLSCAASGSIFSSYSMGWYRQAPGKERELVAAIDGSGGSTYADSVKGRFTISRDNAKNTVYLQMNSLKPEDTAVYYCAVDSFLVYSAVRPYDYWGHGTQVTVSS”, which “polyreactivity (PSR sort gate)” value is on record?
The value was “low polyreactivity”.

For “QVQLVESGGGLVQAGGSLRLSCAASGSIFYPNAMGWYRQAPGKERELVAAISSSGGTNYADSVKGRFTISRDNAKNTVYLQMNSLKPEDTAVYYCNARDKVRYRYSRMDYWGQGTQVTVSS”, which “polyreactivity (PSR sort gate)” value is on record?
Its value is “low polyreactivity”.

With “QVQLVESGGGLVQAGGSLRLSCAASGSIFFGNAMGWYRQAPGKERELVAAITRRGGSTYYADSVKGRFTISRDNEKNTVYLQMNSLKPEDTAVYYCKAVSKRYGYGYWGLGTQVTVSS” as the sequence, how does the “polyreactivity (PSR sort gate)” value read?
The value was “high polyreactivity”.

Which “polyreactivity (PSR sort gate)” value does the source give for “QVQLVESVGGLVQEGGSLRLISAASGSIFGSNAMGWYRQAPGKEREMFAAISKSGGSTYYADSVKGRFTISRDNAKNTVYLQMNSLKPEDTAVFYCNPRWWVVTFYGRYEGDYWGQGTQVTVSS” here?
Its value is “low polyreactivity”.

With “QVQLVESGGGLVQAGGSLRLSCAASGGTFDWNTMGWYRQAPGKERELVASITSGGRTNYADSVKGRFTISRDNAKNTVYLQMNSLKPEDTAVYYCAIYRRSAYPWQTWVGQKFDYWGQGTQVTVSS” as the sequence, how does the “polyreactivity (PSR sort gate)” value read?
The value was “low polyreactivity”.

For “QVQLVESGGGLVQAGGSLRLSCAASGSTFGNYAMGWYRQAPGKERELVAAISVGDGSTYYADSVKGRFTISRDNAKNTVYLQMNSLKPEDTAFYYCAADFVYPSWHYDYWGQGTQVTVSS”, which “polyreactivity (PSR sort gate)” value is on record?
The value was “high polyreactivity”.

For “QFQLVESGGGLVQAGGSLRLSCAASGSTFNYNAMGWYRQAPGIERELVAAISSSAGSTYYADSVKGRFTISRDNAKNTVYLQMNILKPEDTAVYYCANGGSSRVRTEGDYWGQGTQVTVSS”, which “polyreactivity (PSR sort gate)” value is on record?
Its value is “low polyreactivity”.

With “QVQLVESGGGLVQAGGSLRLSCAASGFTLRAYAMGWYRQAPGKERELVAAITQRGTGTYYADSVKGRFTISRDNAKKTVFLQMNSLKPEDTAVYYCAAEAPRWSNYYYWGQGTQVSVSS” as the sequence, how does the “polyreactivity (PSR sort gate)” value read?
Its value is “high polyreactivity”.

With “QVQLVESGGGLVQAGGSLRLSCAASGIFGGYAMGWYIQAPRKERELVAAITSGGSTYYADSVKGRFTISRDNAKNTVYLQMNSLKPEDTAVYYCAARPRGTYSRLGYWGQGTQVTVSS” as the sequence, how does the “polyreactivity (PSR sort gate)” value read?
The value was “high polyreactivity”.

Which “polyreactivity (PSR sort gate)” value does the source give for “QVQLVESGGGLVQAGGSLRLSCAASGFIFADNAMGWYRQAPGKERELVAAINLGGGDTYYADSVKGRFTISRDNAKNTVYLQMNSLKPEDTAVYYCATVWFSEGYDYNHWGQGTQVTVSS” here?
The value was “low polyreactivity”.

Which “polyreactivity (PSR sort gate)” value does the source give for “QVQLGESGGGLVQAGGSLRLSCAASGSTFARYAMGWYRQAPGKERELVAVIRSGGSRNYADSVKGRFTISRDNAKNTVYLQMNSLKPEDTAGAADQWTIHRWATYGYWGQGTQVTVSS” here?
Its value is “low polyreactivity”.

For “QVQLVESGGGLVQAGGSLRLSCAASGIIFIYNAMGWYRQAPGKERELVADIRRSGSTSYADSVKGRFTISRDNAKNTVYLQMNSLKPEDTAVYYCAADTSTWFGAYYLRDPYDYWGQGTQVTVSS”, which “polyreactivity (PSR sort gate)” value is on record?
Its value is “low polyreactivity”.

With “QVQLVESGGGLVQAGGSLRLSCAASGRTSAINAMGWYRQAPGKERELVADITRTGGTYADSVKGRFTISRDNAKNTVYLQMNSLKPEDTAVYYCAAVGPWRFDYWGQGTQVTVSS” as the sequence, how does the “polyreactivity (PSR sort gate)” value read?
The value was “high polyreactivity”.

Which “polyreactivity (PSR sort gate)” value does the source give for “QGQLVESWGGLVQAGGSHRLSCAASGRIFVYYAMGWYRQAPGKERELVAGMTGGGNTYYAYSVKVLFTISRDNAKNTGYLQKNSLKPEDTAVYYCAADPIRYRSRHKYGYWGQGTQVTVSS” here?
Its value is “low polyreactivity”.

Which “polyreactivity (PSR sort gate)” value does the source give for “QVQLVESGGGLVQAGGSLRLSCAASGSIFYKYAMGWYRQAPGKERELVAAISTSGGSTYYADSVKGRFTISRDNAKNTVYLQMNSLKPEDTAVYYCAKARSYGLGRSYYWGQGTQVTVSS” here?
The value was “high polyreactivity”.

Which “polyreactivity (PSR sort gate)” value does the source give for “QDQLVESGGGLVQAGGSLRLSCAASGRIFGYYVMGWYRQAPGKERELVAAISGSGGSTYYADSVKGRFTISRDNAKNTVYLQMNSLKPEDTAVYYCNKRATRSRRRGYWGQGTQVTVSS” here?
The value was “low polyreactivity”.

For “QVHLVESGGGLVQAGGSLRLSCAASGFIRNYAMGWYRQAPGKERELVAAITSSGGRTYYADSVKGRFTISRDNAKNRVYLQMNSLKPEDTAVYYCAAPSRITTGPHREYDYWGQGTLVTVSS”, which “polyreactivity (PSR sort gate)” value is on record?
The value was “high polyreactivity”.

For “QVQLVEYGGGLVQAGGSLRLSCAASGRIFNYYAMGWYRQAPGKEREFVAAITRSGGRTYYADSVKGRFTISRDNAKNTVYLQMNILKPEDTAVYYCAAPYGTYAYDYSGQGTQVTVSS”, which “polyreactivity (PSR sort gate)” value is on record?
Its value is “high polyreactivity”.

Which “polyreactivity (PSR sort gate)” value does the source give for “QVQLVESGGGLVQAGGSLRLSSAPSGRTFLSNAMGWYRQAPGKERELVAAITWETDSTYYADSVKGLFTISRDNAKNTVYLQMNSLKPEDTAVYYCAARRYRPFTDYDGRTWWTRDYWGQGTQVTVSS” here?
Its value is “low polyreactivity”.

For “QVQLVESGGGLVQAGGSLRLSCAASGRIFRSNSMGWYRQAPGKERELVATITRSGGSTYYADSGKGRFSISRDNAKNTVYVQKNSLKPEDTAVYYCNAVFGSAYRAQRIMGYWGQGTQVTVSS”, which “polyreactivity (PSR sort gate)” value is on record?
The value was “low polyreactivity”.

With “QVQLVESGGGLVQAGGSLRLSCAASGTTFILNAMGWYRQAPGKDRELVATISSSDTSTYYADSVKGRFTISRDNAKNTVYLQMNSLKPEDTAVYYCNADYYTTSYLQRVFHYGVEYDYWGQGTQVTVSS” as the sequence, how does the “polyreactivity (PSR sort gate)” value read?
The value was “low polyreactivity”.

With “QVQLVESGGGLVQAGGSLRLSCAASGRTFSGNAMGWYRQAPGKERELVAAITGRGGTTYYADSVKGRFTISRDNAKNTVYLQMNSLKPEDTAVYYCAADTKLSYQWFDYWGQGTQVTVSS” as the sequence, how does the “polyreactivity (PSR sort gate)” value read?
The value was “high polyreactivity”.

With “QVQLVESGGGLVQAGGSLRLSCAASGSIFGYNTMGWYRQAPGKERELVAAISWNGGNTYYADSVKGRFTISRDNAKNTVYLQMNSLKPEDTEVYYCNARTRSRSRGFDSWGQGTQVTVSS” as the sequence, how does the “polyreactivity (PSR sort gate)” value read?
Its value is “high polyreactivity”.

For “QVQLVESGGGLVQAGGSLRLSCAASGFIFDGYAMGWYRQAPGKERELVAAISSSGGRTHYADSVKGRFTISRDNAKNTVYLQMNSLKPEDTAVYYCAVRFKWQGYNYWGQGTQVTVSS”, which “polyreactivity (PSR sort gate)” value is on record?
The value was “high polyreactivity”.

Which “polyreactivity (PSR sort gate)” value does the source give for “QVQLVESGGGLVQAGGSLRLSCAASGSIFKYYTMGWYRQAPGKDRELVAAISSGGSTTYADSVKGRFTISRDNAKNSVYLQMNSLKPEDTAVYCCAAGYGYPTFVERDYWGHGTQVTVSS” here?
The value was “high polyreactivity”.

For “QVQLVESGGGLVQAGGSLRLSCAASGRTVTYYVMGWYRQAPGNERELVARITSSGITYYADSVKGRFTISRDNAKNTVYLQMNSLKPEDTAVYYCAKRRNAWTPYRFDYWGQGTQVTVSS”, which “polyreactivity (PSR sort gate)” value is on record?
The value was “high polyreactivity”.

With “QVQLVESGGGLVQAGGSLRLSCAASGRIFGDNAMGWYRQAPGKERELVAAITSGGNTYYADSVKGRFTISRDNAKNTVYLQMNSLKPEDTAVYYCNVADWRRWGYDYWGQGTQVTVSS” as the sequence, how does the “polyreactivity (PSR sort gate)” value read?
The value was “low polyreactivity”.

Which “polyreactivity (PSR sort gate)” value does the source give for “QVQLVESGGGLVQAGGSLRLSCAASGRTFRNYAMGWYRQAPAKERELVAAITWSGGSTYYADSVKGRFTISRDNSKNTVYLQMYSLKPEDTAVYYCNVRSYTRTYNYWGQGTQVTVSS” here?
The value was “high polyreactivity”.

Which “polyreactivity (PSR sort gate)” value does the source give for “QVQLLESGGGLDQARGSLRLSCAASGRTFYGYGMGWSRQAPGKEREFVAAISYSGGSTYYADSVKGRFTISRDNAKNTVYLQMNSLKPEDTAVYYSAARNRGSCYYYWGQGTQVTVSS” here?
The value was “high polyreactivity”.

With “QVQLEESGGGLVQAGVSLRLSCAASGSTFGYYAMGWSRQAPGKERELVAAITSGGTTNYADYVKGRFTISRYNEKNTVYLQMYSLKPEDTAVYYCNAVGTFVRYWTDGRDGVTYDFWGQGTQVTVSS” as the sequence, how does the “polyreactivity (PSR sort gate)” value read?
The value was “low polyreactivity”.

Which “polyreactivity (PSR sort gate)” value does the source give for “QVQLVESCGGLVQAGGSLRLSCAASGSIFYGNVMGWYRQAPGKERELVAAISSSGGSTYYADSVKGRFTISRDNEKNTVYLQMNRLKPEDSAVYYCAAYWWSRVVRGSRYDYWGQGTHVTVSS” here?
The value was “low polyreactivity”.

For “QVQLVESGGGLVQAGGSLRLSCSASGSTFNVNAMGWYRQAPGKERELVAAIRTSGGSTYYADSVKGRFTISRDNAKNTVYLQMNSLKQEDTAVYYCNARVGSSSSRYYYWGQGTQVTVSS”, which “polyreactivity (PSR sort gate)” value is on record?
The value was “low polyreactivity”.

Which “polyreactivity (PSR sort gate)” value does the source give for “QVQLVESGGGLVQAGGSLRLSCADSGSIFYPYAKGLYRQDPGKERELVATITSSGSSTYYADSVKGRFTISRDNAKNTVYLQMNSLKPEDTAVYYCAAYRVILYYLYDYWGQGTQVTLSS” here?
The value was “low polyreactivity”.

With “QVQLVESGGGLVQAGGSLRLSCAASGRIFIAYAMGWYRKAPAKERELVAAITDDGGTNYADSVKGRFTISRDNAKNTVYLQMKSLKPEDTAVYYCAATYLIGYYYVWEYDYWGQGTQVTVSS” as the sequence, how does the “polyreactivity (PSR sort gate)” value read?
Its value is “low polyreactivity”.

With “QVQLVESGGGLVQAGGSLRLSCAASGSTFNYNAMGWYRQAPGKERELVAAITYSGSSTYYADSVKGRFTISRDNAKNTVYLQMNSLKPEDTAVYYCAKDWYYLRRNYDYWGQGTQVTVSS” as the sequence, how does the “polyreactivity (PSR sort gate)” value read?
Its value is “high polyreactivity”.

For “QVQLVESGGGLVQAGGSLRLSCAASGLTFYDYAMGWYRQAPGKERELVADIDFNGGSTSYADSVKGRFTISRDNAKNTVYLQMNSLKREDTAVYYCNTRDRGDVVTGLDYWGQGTQVTVSS”, which “polyreactivity (PSR sort gate)” value is on record?
Its value is “low polyreactivity”.

With “QVQLVESGGGLVQAGGSLRLSCAASGRTFWYNAMGWYRQAPGKERELVAVISSGAITYYADSVKGRFTISRDNAKNTVYLQMNSLKPEDTAVYYCAARSYLSLIDYWGQGTQVTVSS” as the sequence, how does the “polyreactivity (PSR sort gate)” value read?
Its value is “high polyreactivity”.

For “QVQLVESGGGLVQAGGSLRLSCAASGSTFTFYAMGWYRQAPGKERELVATISSSGGSTYYADSVKGRFTFSRDNAKKTVYLQMNSLKPEDTAVYYCAADPSIVDGEYGYWGQGTQVTVSS”, which “polyreactivity (PSR sort gate)” value is on record?
The value was “low polyreactivity”.

Which “polyreactivity (PSR sort gate)” value does the source give for “QVQLVESGGGLVQAGGSLRLSCAAYSYVMGWYRQAPGKERELVAAISQSGGSTYYADSVKGRFTISRDNAKNTVYLQMNSLKPEDTADYYCAARREPYQYNQYYSWGQGTQVTVSS” here?
Its value is “high polyreactivity”.

With “QVLLVESGGGLVQAGGSHRLSCAASGFIFWDYAKGGYRQAPGKERELVAAITSGGGSTYYADSVKGRFTISRDNAKNTVYLQMNSLKPEDTAVYYCNAVSWEGYDFDYWGQGTQVTVSS” as the sequence, how does the “polyreactivity (PSR sort gate)” value read?
Its value is “high polyreactivity”.

With “QVQLVESGGGLVQAGGSLRLICAASGRISLSNAMGWYRHAPGKEREFVAAITKRSDRTYYADSVKGRFTISRDNAKNTVYLQMNSLKPEETAVYYCAAKPLFGTRDDYWGQGTQVTVSS” as the sequence, how does the “polyreactivity (PSR sort gate)” value read?
Its value is “low polyreactivity”.
